From paper PMC5698441, “Molecular basis of AKAP79 regulation by calmodulin” (Nature Communications, 2017)

Columns and labels:
calcineurin I396A/I400A = calcineurin I396A/I400A (UniProt Q08209)
calcineurin, WT = calcineurin, WT (UniProt Q08209)

human CaM, untagged (pET28-a) (from UniProt P0DP23 1-149) (natural protein)
half-maximal CaM concentration (KCaM) for activation of phosphatase activity against a phosphorylated RII peptide (calcineurin I396A/I400A): 670 nM | half-maximal CaM concentration (KCaM) for activation of phosphatase activity against a phosphorylated RII peptide (calcineurin, WT): 30 nM
